The nature of the data set: soluble on expression in E. coli; label from the status in PepcDB or PDB records.
Take “MDIRPARISDLTGMQNCNLHNLPENYQLKYYLYHAISWPMLSYVATDPKGRVVGYVLAKMEEEPKDGIPHGHITSVSVMRSYRHLGLAKRLMVQSQRAMVEVYGAKYMSLHVRKSNRAAIHLYRDTLQFDVQGIESKYYADGEDAYAMHKDFSTLKFDTPETNDELAKTVQSLALNN”: the “soluble on expression in E. coli” value is “soluble”.

Consider “MDISVVVPTLNGREELTGCLDALTEQVPDAEVIVVNGPSADGTTGMVRDRDDVSLLVEIADRSVTVARNAGIDRATGDVIALVHQSLSVESGWADAVKDGLSGAAQAITGPTHQQLWAGMTTETEETRTIAGRDVTYFNPGNVAFDAEVVEALDGFDEYLNVGSARDFAHRMAAGEYGVDWSTEMCVSREFEADGGIAETDWNWKYRSLAYRLVKNYNVRPTVVRRILSHAVGDAKDALFDVVRGETTPSQWLGTGQDVFGGVGSGIVDGVRARVTDRTARRNPNGRSARTNRAVTVYDWRLEHHHHHH”, for which the “soluble on expression in E. coli” value is “not soluble”.

As to “MDIWYGTAAVPKDLDNSAVTIGVFDGVHRGHQKLINATVEKAREVGAKAIMVTFDPHPVSVFLPRRAPLGITTLAERFALAESFGIDGVLVIDFTRELSGTSPEKYVEFLLEDTLHASHVVVGANFTFGENAAGTADSLRQICQSRLTVDVIDLLDDEGVRISSTTVREFLSEGDVARANWALGRHFYVTGPVVRGAGRGGKELGFPTANQYFHDTVALPADGVYAGWLTILPTEAPVSGNMEPEVAYAAAISVGTNPTFGDEQRSVESFVLDRDADLYGHDVKVEFVDHVRAMEKFDSVEQLLEVMAKDVQKTRTLLAQDVQAHKMAPETYFLQAES”, the “soluble on expression in E. coli” value is on record as “soluble”.

For the sequence “MDIYERQVRVEAPLAEVWKFHATGDGLVALTPDWMNIRIEAERGPDGEPNPDELTAGSVVESSIKPFGVPPRQQWVSNIVAREEGEDEAMFRDVMEEGPFPHWEHTHTFRALSDRETLVHDHVEFELPGGPLGRALGPFGCLGMEPMFRYRHQQTKKLLEGLEHHHHHH”, the “soluble on expression in E. coli” value is reported as “not soluble”.

For the sequence “MDIYVCTVCGYEYDPAKGDPDSGIKPGTKFEDLPDDWACPVCGASKDAFEKQ”, the “soluble on expression in E. coli” value is given as “soluble”.

On to “MDKKSKLINLLKEVGCIRFGEFILASGKKSNYYIDIKKATTNPEILKLVGEIIAEQIKDEDVKVAGVELGSVPIATAVSIIAQKPLLIVRKKPKDYGTKNKIEGELKEGDKVVIVEDVTTTGGSVLKAVKEIRENGGIVDKVFVVVDRLEGAKENLQKENVELIPLVTVKELQSTQ”, for which the “soluble on expression in E. coli” value is given as “soluble”.

“MDKLNKITVPASQKLRQLQKMVHDIKNNEGGIMDKIKKLKVKGPPSVPRRDYALDSPADEEEQWSDDFDSDYENPDEHSDSEMYVMPAEETGDDSYEPPPAEQQTRVVHPALPFTRGEYVDNRSSQRHSPPFSKTLPSKPSWPSAKARLASTLPAPNSLQKPQVPPKPKDLLEDEADYVVPVEDNDENYIHPRESSPPPAEKAPMVNRSTKPNSSSKHMSPPGTVAGRNSGVWDSKSSLPAAPSPLPRAGKKPATPLKTTPVPPLPNASNVCEEKPVPAERHRGSSHRQDTVQSPVFPPTQKPVHQKPVPLPRFPEAGSPAADGPFHSFPFNSTFADQEAELLGKPWYAGACDRKSAEEALHRSNKDGSFLIRKSSGHDSKQPYTLVAFFNKRVYNIPVRFIEATKQYALGKKKNGEEYFGSVVEIVNSHQHNPLVLIDSQNNTKDSTRLKYAVKVS”: the “soluble on expression in E. coli” value is “soluble”.

Turning to “MDKQLEAARKFLKDNVRQMVDFSQTAQNRRVPPPPIEKPMPEEAKTIPLPVIGKAKSAGNIDLWSAIGQRESCRFYADEPMSLDELSLLLWATQGVRLKLDAGHALRTVPSAGCRHAFETYLCVLNVESLDKGIYRYLPLEHALLCSHAPEKLESRIVRATLGQRFTGDAAVVFVWTAIPYRMEWRYGLAAHKVIALDAGHVCQNLYLACEAIGAGTCAIAAYDQDEMDRLLDVDGEEEFTIYLAPVGKKG”, the “soluble on expression in E. coli” value is reported as “not soluble”.

As to “MDKVYLTWWQVDRAIFALAEKLREYKPDVIIGVARGGLIPAVRLSHILGDIPLKVIDVKFYKGIDERGEKPVITIPIHGDLKDKRVVIVDDVSDTGKTLEVVIEEVKKLGAKEIKIACLAMKPWTSVVPDYYVFRTEKWIVFPWEEFPVIEKE”, the “soluble on expression in E. coli” value was “soluble”.

In the case of “MDLELEPTLESIVQHDSLKWIFVGGKGGVGKTTTSSSVAVQLALAQPNEQFLLISTDPAHNLSDAFCQKFGKDARKVEGLPNLSCMEIDPEAAMSDLQQQASQYNNDPNDPLKSMMSDMTGSIPGIDEALSFMEVLKHIKNQKVLEGEDNSNAISYKTIIFDTAPTGHTLRFLQLPSTLEKLLSKFKDLSGKLGPMLSMMGGGQQQDIFEKLNEVQKNVSEVNEQFTNPELTTFICVCISEFLSLYETERMIQELMSYNMDVNSIVVNQLLFAEGDDHSCKRCESRWKMQKKYLDQMGELYEDYHLVKMPLLGCEIRGVENLKKFSKFLLKPYDPKADSDIVFDLEEK”, the “soluble on expression in E. coli” value is listed as “soluble”.

For “MDLFIKKRIKAIQKGDQNAYADLVDLYKDKIYRLCYRMLGNRHEAEDAAQEAFIRAYIHIDTYNPEMKFSTWLYRIATNLTIDKLRKRKPDVYLDEEVGGTDGLTMQAQLPSREASPEEAVESLELQETVQRAIEQLPEKYRSVIVLKYMEDLSLQEISEILGLPVGTVKTRLHRGREALRRQLGHL”, the “soluble on expression in E. coli” value is recorded as “not soluble”.

Turning to “MDLIHEKVFVNRYHYDVRNHEWEKENGVPKTNVEVTFQLHHKDKEANNTSVVAVLQFMIVRDEFVISGIVSQMNHIQNRIVNNPKDFSQEEAEYLAAPLLDTLQRLTYEVTEIALDRPGINLEF”, the “soluble on expression in E. coli” value is recorded as “not soluble”.

For the sequence “MDLLGKLFSRALKLSTLPTKKKRDAFSQQRKVLKKLLKKSANTQFGLRFNFYEILVQFSSGNKKVFYDFYKRRVPVYTYNTLYNEWWYRLKEGEADVTWPGKVQYFALSSGTSDASTKYIPITEQFLKANKKIGIRQLLSLAHYKLPKDLLGKGILMLGGSTHLHKTETYYEGDLSGIQASKIPFWFQYFYKPGSRIARNRDWESKLNDIVESAPDWDIGFIVGVPAWLQILLERIIARYQLKTIHDIWPNLTVFVHGGVAFDPYRKGFEKLLAKPIIYIETYLASEGFIAYQAGPGRKGMKLILDNGIFFEFVPFNEQNINASGDIVVNPKTLMIHEVEEGVDYVLLVSTCAGTWRYMIGDVIRFVDKAQAEIIITGRTKHFISLCGEHLSVDNMNQAIKLVAEELNIIIKEFTVSGIAHDTLFAHQWYIGTDHVIDPVVVSDLLDEKLKLLNDDYRVERTSALKEIFVTILPSQSFYDWMRYRGKEGGQNKFPRVLNKKLHEDWKAFLNQ”, the “soluble on expression in E. coli” value is recorded as “not soluble”.

Take “MDLNFDLYMNDVVEQARNEIEHAGYQQLTSAEDVDQVLQQKGTSLVMVNSVCGCAGGIARPAAAHALHYDKLPQRLVTVFAGQDKEATQQAREYFEGYAPSSPSFALIKDGKITEMIERHQIEGHDVMDVINQLQALFDKYCEER”: the “soluble on expression in E. coli” value is “not soluble”.

Take “MDLQSTPLKGVVRSSEDGLFYLFPIQSLSTLQEMKGHLTCAIDVLSNPDESDVEKRLDAVRTLNSLVAALSVNDGDHYDVIDTAFEEIRE”: the “soluble on expression in E. coli” value is listed as “not soluble”.

For “MDLSGVKKKSLLGVKENNKKSSTRAPSPTKRKDRSDEKSKDRSKDKGATKESSEKDRGRDKTRKRRSASSGSSSTRSRSSSTSSSGSSTSTGSSSGSSSSSASSRSGSSSTSRSSSSSSSSGSPSPSRRRHDNRRRSRSKSKPPKRDEKERKRRSPSPKPTKVHIGRLTRNVTKDHIMEIFSTYGKIKMIDMPVERMHPHLSKGYAYVEFENPDEAEKALKHMDGGQIDGQEITATAVLAPWPRPPPRRFSPPRRMLPPPPMWRRSPPRMRRRSRSPRRRSPVRRRSRSPGRRRHRSRSSSNSSR”, the “soluble on expression in E. coli” value was “soluble”.

Regarding “MDMRSHEMIERRREDNGNNNGGVVISNIISTNIDDNCNGNNNNTRVSCNSQTLDHHQSKSPSSFSISAAAKPTVRYRECLKNHAASVGGSVHDGCGEFMPSGEEGTIEALRCAACDCHRNFHRKEMDGVGSSDLISHHRHHHYHHNQYGGGGGRRPPPPNMMLNPLMLPPPPNYQPIHHHKYGMSPPGGGGMVTPMSVAYGGGGGGAESSSEDLNLYGQSSGEGAGAAAGQMAFSMSSSKKRFRTKFTTDQKERMMDFAEKLGWRMNKQDEEELKRFCGEIGVKRQVFKVWMHNNKNNAKKPPTPTTTL”, the “soluble on expression in E. coli” value is “not soluble”.

As to “MDMSKASQEQFSMFMNLLCITVKDMPITEYYTSYILWEEVEFLEGVKDLLDPTSAFEDRRSSLYHHLGHNFASNCSLKDDNNVRDAHVVVEDHTKFDNYMYDQMTRKEWTSLHL”, the “soluble on expression in E. coli” value was “soluble”.

As to “MDMTDQAFFKYVRNFNEYQKRSMFGGIGLFSDDAMFALVSNDCCYLRGGNGLDEEFTLLNCEKYKHVKKQTTATVNYYDVTDLFESGFTGLDDLLRKSIDCSIKERKYQKSSASKRLRDLPNMQLTLERMVKKAGIDDVETFLELGPVEVFNKVRVAYGNDVDVKLLWKFAGAIDGVHWKLIQEPRKKQLLALCE”, the “soluble on expression in E. coli” value is on record as “not soluble”.

As for “MDNGDWGYMMTDPVTLNVGGHLYTTSLTTLTRYPDSMLGAMFGGDFPTARDPQGNYFIDRDGPLFRYVLNFLRTSELTLPLDFKEFDLLRKEADFYQIEPLIQCLNDPKPLYPMDTFEEVVELSSTRKLSKYSNPVAVIITQLTITTKVHSLLEGISNYFTKWNKHMMDTRDCQVSFTFGPCDYHQEVSLRVHLMEYITKQGFTIRNTRVHHMSERANENTVEHNWTFCRLARKTDD”, the “soluble on expression in E. coli” value is “not soluble”.

As for “MDNHNKYSVRCQCGAVEVQLNNNPVVHAFCHCSDCRDLLNIPFHAVTAWNKNDAVIVKGEEELSIYKHPSLEMTRCFCKHCGETVFNTNVMDWRVISQLLISKCNNNEIPENLRSDKHFFYEQRVVDIQDELPKFSRGTDGPLYEDQH”, the “soluble on expression in E. coli” value is “not soluble”.

For the sequence “MDPFGTYKTAISARATDKAILKKSQDGGIISASYIYGLENGLLDGVIVANTEDGFKAAPKIATTPEEVLSAAGTKYTVSPNVSVLKDAVREYALEKVGIVGTPCQVRAIRKLMKYPMGFRHTDSKIALVMGIFCMENFPYEGMKAIVEQYAGIRMNDVLKTDIGKGKFWVYSKSGDVKAVPLKDTHMYEQKSCHVCMDYTAELADISTGSVGSPDGWSTIFVRTAKGEEYLNKMVEAGALETKPIDDVKPGLDLVQKLALQKKEKNDKEIAHRKEIGLPVPYLEHHHHHH”, the “soluble on expression in E. coli” value is “not soluble”.

As to “MDPSLLRERELFKKRALSTPVVEKRSASSESSSSSSKKKKTKVEHGGSSGSKQNSDHSNGSFNLKALSGSSGYKFGVLAKIVNYMKTRHQRGDTHPLTLDEILDETQHLDIGLKQKQWLMTEALVNNPKIEVIDGKYAFKPKYNVRDKKALLRLLDQHDQRGLGGILLEDIEEALPNSQKAVKALGDQILFVNRPDKKKILFFNDKSCQFSVDEEFQKLWRSVTVDSMDEEKIEEYLKRQGISSMQESGPKKVAPIQRRKKPASQKKRRFKTHNEHLAGVLKDYSDITSSK”, the “soluble on expression in E. coli” value is listed as “not soluble”.

As to “MDPTETFARMNKVMHQTLKYVKEVESINFSSRGVIDFNGEVMEDHQRIFLSVCTSVFANFSFSCQMDVEKLLSFLMALFENYSKENAYHNALHAADSVQMLFLILREKPATLIFTENEVILAFLATLSLGFVHPGVSNAFLARIDHPLVLVYGDMTTQQSAGLTALLYLLNREENRFIDLFANSGTQPFSQFLREILVETVLGTAPRLRSSLLRDLEKVAVADAVELNDIPILLAAVVILADNALALRPHAQFVNLAGLMVTEWLREAYEEEQRGMDPLVPNLRKQIYENGLGMAVDYCKVWLRPLITNIRALVPQDLYDNMEGNTEAPSMSEIQDFLVHLDSSNERWNDGSVPVIDIIRRITMHATSLDRKASKRAILNAASN”, the “soluble on expression in E. coli” value is “not soluble”.

The values are drawn from the DeepSol protein solubility set.
